Assay results taken from patent publication US20250197482A1 (UNITED STATES OF AMERICA AS REPRESENTED BY THE SECRETARY …, published 2025).
Where a chain is given by its changes, count along the chain named.

B1: CAP256V2LS-J3-1 (bispecific antibody)
heavy chain: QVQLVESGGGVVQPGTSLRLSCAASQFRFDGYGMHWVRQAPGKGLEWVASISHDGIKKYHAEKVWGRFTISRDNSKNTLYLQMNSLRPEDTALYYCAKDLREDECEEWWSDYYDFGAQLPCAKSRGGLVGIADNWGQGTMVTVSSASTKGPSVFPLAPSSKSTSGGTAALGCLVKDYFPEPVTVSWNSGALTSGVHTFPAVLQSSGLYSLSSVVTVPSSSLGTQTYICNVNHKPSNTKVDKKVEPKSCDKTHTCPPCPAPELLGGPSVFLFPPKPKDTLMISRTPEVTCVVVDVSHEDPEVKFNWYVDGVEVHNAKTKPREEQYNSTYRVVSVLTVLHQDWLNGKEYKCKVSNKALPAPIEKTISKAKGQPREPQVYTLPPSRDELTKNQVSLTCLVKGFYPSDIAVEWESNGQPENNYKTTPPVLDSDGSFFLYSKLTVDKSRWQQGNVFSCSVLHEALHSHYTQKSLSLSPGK
light chain (J3 VHH, linker, CAP256V2LS LC): EVQLVESGGGLVQAGGFLRLSCELRGSIFNQYAMAWFRQAPGKEREFVAGMGAVPHYGEFVKGRFTISRDNAKSTVYLQMSSLKPEDTAIYFCARSKSTYISYNSNGYDYWGRGTQVTVSSGGSGGQSVLTQPPSVSAAPGQKVTISCSGNTSNIGNNFVSWYQQRPGRAPQLLIYETDKRPSGIPDRFSASKSGTSGTLAITGLQTGDEADYYCATWAASLSSARVFGTGTQVIVLGQPKVNPTVTLFPPSSEELQANKATLVCLISDFYPGAVTVAWKADSSPVKAGVETTTPSKQSNNKYAASSYLSLTPEQWKSHRSYSCQVTHEGSTVEKTVAPTECS
B2: CAP256V2LS-VRC01-3 (bispecific antibody)
heavy chain: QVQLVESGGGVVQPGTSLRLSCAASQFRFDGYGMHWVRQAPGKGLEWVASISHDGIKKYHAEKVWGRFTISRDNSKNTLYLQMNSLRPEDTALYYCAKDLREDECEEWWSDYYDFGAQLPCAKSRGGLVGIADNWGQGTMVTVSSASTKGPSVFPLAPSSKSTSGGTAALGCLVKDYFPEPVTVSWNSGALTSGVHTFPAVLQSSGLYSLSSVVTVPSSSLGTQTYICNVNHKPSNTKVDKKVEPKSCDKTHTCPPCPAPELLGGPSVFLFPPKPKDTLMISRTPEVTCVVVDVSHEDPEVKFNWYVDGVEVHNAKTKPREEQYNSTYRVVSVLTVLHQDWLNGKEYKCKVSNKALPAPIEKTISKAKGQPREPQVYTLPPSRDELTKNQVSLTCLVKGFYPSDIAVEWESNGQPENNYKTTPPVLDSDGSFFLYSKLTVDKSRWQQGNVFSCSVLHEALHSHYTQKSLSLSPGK
light chain (VRC01 scFv, linker, CAP256V2LS LC): QVQLVQSGGQMKKPGESMRISCRASGYEFIDCTLNWIRLAPGKRPEWMGWLKPRGGAVNYARPLQGRVTMTRDVYSDTAFLELRSLTVDDTAVYFCTRGKNCDYNWDFEHWGRGTPVIVSSGGGGSGGGGSGGGGSLTQSPGTLSLSPGETAIISCRTSQYGSLAWYQQRPGQAPRLVIYSGSTRAAGIPDRFSGSRWGPDYNLTISNLESGDFGVYYCQQYEFFGQGTKVQVGGSGGGGSGGGGSGGQSVLTQPPSVSAAPGQKVTISCSGNTSNIGNNFVSWYQQRPGRAPQLLIYETDKRPSGIPDRFSASKSGTSGTLAITGLQTGDEADYYCATWAASLSSARVFGTGTQVIVLGQPKVNPTVTLFPPSSEELQANKATLVCLISDFYPGAVTVAWKADSSPVKAGVETTTPSKQSNNKYAASSYLSLTPEQWKSHRSYSCQVTHEGSTVEKTVAPTECS
B3: CAP256V2LS-VRC01-2 (bispecific antibody)
heavy chain: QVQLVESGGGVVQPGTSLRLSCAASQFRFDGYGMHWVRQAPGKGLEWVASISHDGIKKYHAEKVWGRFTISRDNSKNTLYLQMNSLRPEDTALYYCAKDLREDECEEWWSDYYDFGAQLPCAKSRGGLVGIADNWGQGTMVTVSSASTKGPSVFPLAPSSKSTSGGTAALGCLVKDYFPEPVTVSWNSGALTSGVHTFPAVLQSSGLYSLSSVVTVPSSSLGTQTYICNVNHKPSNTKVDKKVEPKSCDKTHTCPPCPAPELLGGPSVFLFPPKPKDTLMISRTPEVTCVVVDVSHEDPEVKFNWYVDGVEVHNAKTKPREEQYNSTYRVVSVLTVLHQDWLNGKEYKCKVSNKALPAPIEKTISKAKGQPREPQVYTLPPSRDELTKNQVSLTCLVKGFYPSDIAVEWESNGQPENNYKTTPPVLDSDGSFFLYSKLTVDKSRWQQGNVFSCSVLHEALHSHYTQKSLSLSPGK
light chain (VRC01 scFv, linker, CAP256V2LS LC): QVQLVQSGGQMKKPGESMRISCRASGYEFIDCTLNWIRLAPGKRPEWMGWLKPRGGAVNYARPLQGRVTMTRDVYSDTAFLELRSLTVDDTAVYFCTRGKNCDYNWDFEHWGRGTPVIVSSGGGGSGGGGSGGGGSLTQSPGTLSLSPGETAIISCRTSQYGSLAWYQQRPGQAPRLVIYSGSTRAAGIPDRFSGSRWGPDYNLTISNLESGDFGVYYCQQYEFFGQGTKVQVGGSGGGGSGGQSVLTQPPSVSAAPGQKVTISCSGNTSNIGNNFVSWYQQRPGRAPQLLIYETDKRPSGIPDRFSASKSGTSGTLAITGLQTGDEADYYCATWAASLSSARVFGTGTQVIVLGQPKVNPTVTLFPPSSEELQANKATLVCLISDFYPGAVTVAWKADSSPVKAGVETTTPSKQSNNKYAASSYLSLTPEQWKSHRSYSCQVTHEGSTVEKTVAPTECS
B4: CAP256V2LS-VRC01-1 (bispecific antibody)
heavy chain: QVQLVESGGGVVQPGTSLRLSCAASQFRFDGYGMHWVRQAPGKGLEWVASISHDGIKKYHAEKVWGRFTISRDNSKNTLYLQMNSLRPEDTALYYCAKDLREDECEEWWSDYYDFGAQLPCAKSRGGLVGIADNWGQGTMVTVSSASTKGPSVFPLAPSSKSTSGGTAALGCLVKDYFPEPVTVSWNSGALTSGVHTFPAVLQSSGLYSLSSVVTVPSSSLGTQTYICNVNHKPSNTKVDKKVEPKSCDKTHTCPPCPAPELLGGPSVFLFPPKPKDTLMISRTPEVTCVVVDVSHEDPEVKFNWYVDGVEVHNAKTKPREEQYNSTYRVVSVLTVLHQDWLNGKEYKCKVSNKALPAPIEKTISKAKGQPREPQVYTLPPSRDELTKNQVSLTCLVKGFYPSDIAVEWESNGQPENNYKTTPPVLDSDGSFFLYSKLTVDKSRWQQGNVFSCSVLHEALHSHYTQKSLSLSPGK
light chain (VRC01 scFv, linker, CAP256V2LS LC): QVQLVQSGGQMKKPGESMRISCRASGYEFIDCTLNWIRLAPGKRPEWMGWLKPRGGAVNYARPLQGRVTMTRDVYSDTAFLELRSLTVDDTAVYFCTRGKNCDYNWDFEHWGRGTPVIVSSGGGGSGGGGSGGGGSLTQSPGTLSLSPGETAIISCRTSQYGSLAWYQQRPGQAPRLVIYSGSTRAAGIPDRFSGSRWGPDYNLTISNLESGDFGVYYCQQYEFFGQGTKVQVGGSGGQSVLTQPPSVSAAPGQKVTISCSGNTSNIGNNFVSWYQQRPGRAPQLLIYETDKRPSGIPDRFSASKSGTSGTLAITGLQTGDEADYYCATWAASLSSARVFGTGTQVIVLGQPKVNPTVTLFPPSSEELQANKATLVCLISDFYPGAVTVAWKADSSPVKAGVETTTPSKQSNNKYAASSYLSLTPEQWKSHRSYSCQVTHEGSTVEKTVAPTECS
B5: CAP256V2LS-VRC01-4 (bispecific antibody)
heavy chain: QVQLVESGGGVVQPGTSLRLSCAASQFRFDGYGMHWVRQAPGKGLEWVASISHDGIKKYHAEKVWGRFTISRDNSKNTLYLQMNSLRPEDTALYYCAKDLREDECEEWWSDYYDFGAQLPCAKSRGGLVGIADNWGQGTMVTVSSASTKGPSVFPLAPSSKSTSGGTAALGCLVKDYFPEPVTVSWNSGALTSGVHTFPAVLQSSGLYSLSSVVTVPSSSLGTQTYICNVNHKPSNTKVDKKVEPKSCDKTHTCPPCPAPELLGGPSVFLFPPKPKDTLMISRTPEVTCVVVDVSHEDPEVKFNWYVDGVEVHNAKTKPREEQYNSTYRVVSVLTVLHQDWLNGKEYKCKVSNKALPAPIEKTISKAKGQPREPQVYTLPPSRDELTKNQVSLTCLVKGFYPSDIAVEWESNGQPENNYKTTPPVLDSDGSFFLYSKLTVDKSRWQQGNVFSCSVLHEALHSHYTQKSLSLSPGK
light chain (VRC01 scFv, linker, CAP256V2LS LC): B4 light chain (VRC01 scFv, linker, CAP256V2LS LC) with G234D, G235K, S236T, G237H, G238T
B6: CAP256V2LS-10E8-5 (bispecific antibody)
heavy chain: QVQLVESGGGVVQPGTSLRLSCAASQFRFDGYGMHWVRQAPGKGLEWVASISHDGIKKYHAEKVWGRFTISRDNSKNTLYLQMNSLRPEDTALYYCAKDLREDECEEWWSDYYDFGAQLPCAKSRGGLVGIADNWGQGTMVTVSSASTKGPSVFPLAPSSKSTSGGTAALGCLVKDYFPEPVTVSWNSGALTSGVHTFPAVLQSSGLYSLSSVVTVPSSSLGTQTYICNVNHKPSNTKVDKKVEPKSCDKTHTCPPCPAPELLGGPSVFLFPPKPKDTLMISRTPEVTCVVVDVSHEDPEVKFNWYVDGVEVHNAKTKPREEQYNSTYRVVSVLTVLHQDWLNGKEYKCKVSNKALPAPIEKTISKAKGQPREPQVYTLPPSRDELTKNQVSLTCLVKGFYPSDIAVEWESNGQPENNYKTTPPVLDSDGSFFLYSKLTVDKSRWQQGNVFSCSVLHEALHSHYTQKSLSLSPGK
light chain (10E8v4 scFv, linker, CAP256V2LS LC): EVRLVESGGGLVKPGGSLRLSCSASGFDFDNAWMTWVRQPPGKGLEWVGRITGPGEGWSVDYAESVKGRFTISRDNTKNTLYLEMNNVRTEDTGYYFCARTGKYYDFWSGYPPGEEYFQDWGQGTLVIVSSGGGGSGGGGSGGGGSSELTQDPAVSVALKQTVTITCRGDSLRSHYASWYQKKPGQAPVLLFYGKNNRPSGIPDRFSGSASGNRASLTITGAQAEDEADYYCSSRDKSGSRLSVFGGGTKLTVDKTHTGDKTHTQSVLTQPPSVSAAPGQKVTISCSGNTSNIGNNFVSWYQQRPGRAPQLLIYETDKRPSGIPDRFSASKSGTSGTLAITGLQTGDEADYYCATWAASLSSARVFGTGTQVIVLGQPKVNPTVTLFPPSSEELQANKATLVCLISDFYPGAVTVAWKADSSPVKAGVETTTPSKQSNNKYAASSYLSLTPEQWKSHRSYSCQVTHEGSTVEKTVAPTECS
B7: CAP256V2LS-10E8-6 (bispecific antibody)
heavy chain: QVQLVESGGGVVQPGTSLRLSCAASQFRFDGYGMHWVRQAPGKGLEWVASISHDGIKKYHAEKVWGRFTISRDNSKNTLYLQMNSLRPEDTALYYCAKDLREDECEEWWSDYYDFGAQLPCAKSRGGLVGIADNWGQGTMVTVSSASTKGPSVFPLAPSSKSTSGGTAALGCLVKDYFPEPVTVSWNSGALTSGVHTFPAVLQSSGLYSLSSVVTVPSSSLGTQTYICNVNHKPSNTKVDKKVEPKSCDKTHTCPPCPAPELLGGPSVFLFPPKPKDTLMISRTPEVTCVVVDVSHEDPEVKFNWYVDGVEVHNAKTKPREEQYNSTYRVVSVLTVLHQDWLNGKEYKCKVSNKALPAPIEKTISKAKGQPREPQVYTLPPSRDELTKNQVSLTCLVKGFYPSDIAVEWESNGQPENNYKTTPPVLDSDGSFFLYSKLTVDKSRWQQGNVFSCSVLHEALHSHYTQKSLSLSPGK
light chain (10E8v4 scFv, linker, CAP256V2LS LC): EVRLVESGGGLVKPGGSLRLSCSASGFDFDNAWMTWVRQPPGKGLEWVGRITGPGEGWSVDYAESVKGRFTISRDNTKNTLYLEMNNVRTEDTGYYFCARTGKYYDFWSGYPPGEEYFQDWGQGTLVIVSSGGGGSGGGGSGGGGSSELTQDPAVSVALKQTVTITCRGDSLRSHYASWYQKKPGQAPVLLFYGKNNRPSGIPDRFSGSASGNRASLTITGAQAEDEADYYCSSRDKSGSRLSVFGGGTKLTVDKTHTGDKTHTGDKTHTQSVLTQPPSVSAAPGQKVTISCSGNTSNIGNNFVSWYQQRPGRAPQLLIYETDKRPSGIPDRFSASKSGTSGTLAITGLQTGDEADYYCATWAASLSSARVFGTGTQVIVLGQPKVNPTVTLFPPSSEELQANKATLVCLISDFYPGAVTVAWKADSSPVKAGVETTTPSKQSNNKYAASSYLSLTPEQWKSHRSYSCQVTHEGSTVEKTVAPTECS
B8: CAP256V2LS-10E8-4 (bispecific antibody)
heavy chain: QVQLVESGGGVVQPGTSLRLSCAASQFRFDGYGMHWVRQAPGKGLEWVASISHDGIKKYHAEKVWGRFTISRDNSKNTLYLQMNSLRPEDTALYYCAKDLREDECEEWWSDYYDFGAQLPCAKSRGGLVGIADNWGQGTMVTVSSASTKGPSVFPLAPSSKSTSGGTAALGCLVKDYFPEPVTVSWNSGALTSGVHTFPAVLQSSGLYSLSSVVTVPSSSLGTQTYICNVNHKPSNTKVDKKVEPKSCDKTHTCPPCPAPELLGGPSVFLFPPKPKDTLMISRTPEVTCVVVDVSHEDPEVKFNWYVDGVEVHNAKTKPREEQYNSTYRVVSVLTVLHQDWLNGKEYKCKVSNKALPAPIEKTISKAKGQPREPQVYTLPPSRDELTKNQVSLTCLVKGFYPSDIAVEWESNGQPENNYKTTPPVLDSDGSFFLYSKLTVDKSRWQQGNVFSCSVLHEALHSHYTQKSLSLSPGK
light chain (10E8v4 scFv, linker, CAP256V2LS LC): EVRLVESGGGLVKPGGSLRLSCSASGFDFDNAWMTWVRQPPGKGLEWVGRITGPGEGWSVDYAESVKGRFTISRDNTKNTLYLEMNNVRTEDTGYYFCARTGKYYDFWSGYPPGEEYFQDWGQGTLVIVSSGGGGSGGGGSGGGGSSELTQDPAVSVALKQTVTITCRGDSLRSHYASWYQKKPGQAPVLLFYGKNNRPSGIPDRFSGSASGNRASLTITGAQAEDEADYYCSSRDKSGSRLSVFGGGTKLTVDKTHTQSVLTQPPSVSAAPGQKVTISCSGNTSNIGNNFVSWYQQRPGRAPQLLIYETDKRPSGIPDRFSASKSGTSGTLAITGLQTGDEADYYCATWAASLSSARVFGTGTQVIVLGQPKVNPTVTLFPPSSEELQANKATLVCLISDFYPGAVTVAWKADSSPVKAGVETTTPSKQSNNKYAASSYLSLTPEQWKSHRSYSCQVTHEGSTVEKTVAPTECS

target: HIV-1 Env of strain WITO.33 (Env-pseudotyped virus) (HIV-1); assay: cell-based or functional assay

Row | Binder | % neutralization, single point, Env-pseudotyped virus on TZM-bl
1 | B1 | 3%
2 | B2 | 0%
3 | B3 | 38%
4 | B4 | 0%
5 | B5 | 0%
6 | B6 | 18%
7 | B7 | 0%
8 | B8 | 10%

target: CAP256 wk34c80 (HIV-1); assay: cell-based or functional assay

Row | Binder | % neutralization, single point, Env-pseudotyped virus on TZM-bl
9 | B1 | 20%
10 | B2 | 99%
11 | B3 | 41%
12 | B4 | 77%
13 | B5 | 98%
14 | B6 | 100%
15 | B7 | 100%
16 | B8 | 23%
